The nature of data set [1]: kinetic analysis, non-endpoint assay at 23° C. The format is biochemical. As to conditions: for Vmax Quizalofop / Km / Vmax 2,4-D / Km 2,4-D: standard error in parenthetical. The text has this: For the fifth screen, recombinant protein for each of the eleven engineered proteins was produced and purified for an in-depth biochemical analysis. This biochemical analysis included: (1) kinetic analysis (Vmax and Km), (2) activity assays over a range of temperatures, (3) protein melting analysis, (4) activity on additional AOPP herbicides substrates, and (5) mass spectrometry analysis on peptides to confirm identity. The biochemical analyses were also done with purified recombinant wild-type protein and MON-HT55 protein for comparison. For the kinetic analysis, a non-endpoint assay was conducted at 23° C. with either quizalofop-P or 2,4-D as substrate. The recombinant proteins for these assays were produced in bacteria and purified using a 6-His tag fused at the C-terminal end of the protein. Results of the kinetic analysis with either quizalofop-P or 2,4-D as substrate are presented for ten of the engineered proteins, wild-type protein, and MON-HT55 protein in Table 7 (standard error is shown in parenthetical). Vmax is expressed as specific activity, umol herbicide product mg enzyme-1 min-1; Km expressed as mM herbicide substrate. […] The differentiation of the protein kinetics for MON-HTI and MON-HT7 were surprising because there are only four amino acid differences between MON-HT1 and MON-HT7. Specifically, MON-HT1 has the following amino acids at the indicated position: 182; F105; T112; and V273, and MON-HT7 has the following amino acids at the indicated position: L82; V105; S112; and A273.
Kinetic analysis using a non-endpoint assay was conducted at 23° C. with either quizalofop-P or 2,4-D as substrate, as detailed above for purified protein of the wild-type enzyme, MON-HT1, MON-HT13, MON-HT15, and MON-HT17.

Data set [2] is classed as physicochemical. As to conditions: buffer; for T1/2, temperature where 50% of the protein was unfolded, Buffer: pH 7.5. Here is the method: A protein melting analysis was also conducted. For the protein melting determinations, purified enzyme was added to 96-well microtiter plates in standard storage buffer (30 mM Tris pH7.5, 150 mM NaCl) with or without 50 uM Fe2+ and 1.0 mM aKG. Protein unfolding was then detected with SYPRO® orange protein gel stain (Invitrogen™ catalog #S6651, Life Technologies, Grand Island, NY) in a BioRad CFX96™ Real time PCR machine (BioRad, Hercules, CA) with readings taken between 10° C. to 95° C. in 0.5° C. steps. […] In contrast, 50 uM Fe2+ and 1.0 mM aKG had little effect on the stability of any of the engineered proteins. MON-HT55, MON-HT3, MON-HT4, MON-HT6, and MON-HT10 had melting temperatures in the range of 41° C. to 48° C., which is below the melting temperature of the wild-type enzyme. MON-HT1, MON-HT2, MON-HT5, MON-HT7, MON-HT8, and MON-HT9 had melting temperatures between 58° C. and 67° C., which is 8° C. to 17° C. higher than the wild-type enzyme. For MON-HT7 and MON-HT1, the difference in melting point was 11° C. in buffer without Fe2+ and aKG and 8° C. in buffer with Fe2+ and aKG. This was surprising since there are only four amino acid differences between the two enzymes.
A protein melting analysis was conducted as detailed above. The melting temperatures of MON-HT13, MON-HT15, and MON-HT17 was similar to the melting temperature of MON-HT1 with T1/2 in buffer in the range of 55-58° C., and with T1/2 in buffer plus Fe2+ and aKG in the range of 60-62° C.

In data set [3] the test system is F1 hybrid maize plants. The experiment in a line: efficacy field trial for 2,4-D tolerance. As to conditions: scale 0 to 100, with CTP unless label says no CTP. The format is in vivo. Here is the method: Separate trait efficacy field trials for quizalofop-P and 2,4-D were conducted at two locations cach with F1 hybrid transgenic plants produced by crossing an inbred plant containing maize event MON89034 with an R1 plant containing MON-HT55 (with a CTP), MON-HTI (with or without a CTP), MON-HT2 (with or without a CTP), MON-HT3 (with a CTP), MON-HT4 (with a CTP), MON-HT5 (with a CTP), MON-HT6 (with a CTP), or MON-HT7 (with a CTP). Transgenic F1 hybrid plants containing maize events NK603×MON89034 were used for comparison as a control.
In the efficacy field trial for 2,4-D tolerance, one of four herbicide treatments was used: (1) 2,4-D amine at 2 lb ac/acre (2×) plus 0.25% v/v non-ionic surfactant (NIS) applied to VE to V2 followed by V4 followed by V8; (2) 2,4-D amine at 4 lb ac/acre (4×) plus 0.25% v/v NIS applied to VE to V2 followed by V4 followed by V8; (3) 2,4-D amine at 8 lb ac/acre (8×) plus 0.25% v/v NIS applied to VE to V2 followed by V4 followed by V8 maize; or (4) 2,4-D amine at 16 lb ac/acre (16×) plus 0.25% v/v NIS applied to VE to V2 followed by V4 followed by V8. Plots were visually rated as above. Tables 14 and 15 show the average injury ratings after herbicide application at V4 or V8 growth stage, respectively.

Data set [4] can be described thus: enzyme activity assay at 23° C. with purified enzyme. The format is biochemical. As to conditions: for maximum activity as a percentage of the wild-type enzyme's activity, Haloxyfop: purified enzyme. Here is the method:
The enzyme activity of MON-HT protein variants with haloxyfop, fenoxaprop, fluazifop, and dichlorprop as substrates was determined using the enzyme activity assay conducted at 23° C. with purified enzyme. The activity was recorded as the maximum activity as a percentage of the wild-type enzyme's activity, which was set at 100%.

[5] abbreviates: 23° C., purified His-tagged protein.
Where [6] appears, read: 23° C., purified His-tagged protein, read-out: Km Quizalofop.
The mark [7] stands for this setting: NDB = activity not robust enough for kinetic characterization.
Setting [8] is: NDB = activity not robust enough for kinetic characterization, read-out: Km 2,4-D.

Residue numbers refer to the chain shown, from its start. Like-named read-outs stand apart in the source and are kept apart here.

B1: MON-HT7: engineered oxygenase protein, amino acid sequence SEQ ID NO:34 (protein)
chain: MHAALTPLTNKYRFIDVQPLTGVLGAEITGVDLREPLDDSTWNEILDAFHTYQVIYFPGQAITNEQHIAFSRRFGPVDPVPLLKSIEGYPEVQMIRREANESGRVIGDDWHADSTFLDAPPAAVVMRAIEVPEYGGDTGFLSMYSAWETLSPTMQATIEGLNVVHSATKVFGSLYQATNWRFSNTSVKVMDVDAGDRETVHPLVVTHPVTGRRALYCNQVYCQKIQGMTDAESKSLLQFLYEHATKFDFTCRVRWKKDQVLVWDNLCTMHRSVPDYAGKFRYLTRTTVAGDKPSR
Take B1: the “Vmax for 2,4-D relative to the wild-type enzyme” value in data set [1] was “about half”. Also, in data set [1] (23° C.), the “Vmax with quizalofop-P greater than the wild-type enzyme” value is reported as “approximately 40%”. Moreover, the “Vmax Quizalofop” value in data set [1] (setting [5]) is on record as 1.94 (−0.12) umol herbicide product mg enzyme-1 min-1. Besides, in data set [1] (setting [6]), the Km was determined as 330 µM. In addition, in data set [1] (setting [7]), the “Vmax 2,4-D” value is given as 0.04 (−0.01) umol herbicide product mg enzyme-1 min-1. Besides, in data set [1] (setting [8]), the Michaelis constant (Km) was 60 µM. In data set [2], the “T1/2, temperature where 50% of the protein was unfolded, Buffer plus Fe2+ and aKG” value is 67 °C; the “T1/2, temperature where 50% of the protein was unfolded, Buffer” value was found to be 67 °C. Also, in data set [3] (2 lb ae/acre at VE-V2, V4, V8), the “average injury rating, V4 Growth Stage, 2x 2,4-D” value is recorded as 1.3 and the “average injury rating, V8 Growth Stage, 2x 2,4-D” value turned out to be 2.0. Further, in data set [3] (4 lb ae/acre at VE-V2, V4, V8), the “average injury rating, V4 Growth Stage, 4x 2,4-D” value came to 1.3 and the “average injury rating, V8 Growth Stage, 4x 2,4-D” value is reported as 2.8. Further, in data set [3] (8 lb ae/acre at VE-V2, V4, V8), the “average injury rating, V4 Growth Stage, 8x 2,4-D” value was 5.8 and the “average injury rating, V8 Growth Stage, 8x 2,4-D” value is listed as 9.3. In data set [3] (16 lb ae/acre at VE-V2, V4, V8), the “average injury rating, V4 Growth Stage, 16x 2,4-D” value was found to be 12.5 and the “average injury rating, V8 Growth Stage, 16x 2,4-D” value was 20.0.

B2: MON-HT8: engineered oxygenase protein, amino acid sequence SEQ ID NO:37 (protein)
chain: B1 chain with L82I, A112T, A277G, G278N, K279A
With B2, the “Vmax Quizalofop” value in data set [1] (setting [5]) is on record as 0.46 (−0.02) umol herbicide product mg enzyme-1 min-1. Besides, in data set [1] (setting [6]), the Michaelis-Menten constant (Km) came to 110 µM. Moreover, in data set [1] (setting [7]), the “Vmax 2,4-D” value was 0.11 (−0.01) umol herbicide product mg enzyme-1 min-1. The Km in data set [1] (setting [8]) was 140 µM. For the same molecule, in data set [4] (wild-type set at 100%), the “maximum activity as a percentage of the wild-type enzyme's activity, Haloxyfop” value came to 99% and the “maximum activity as a percentage of the wild-type enzyme's activity, Fluazifop” value (shortened to “maximum activity as a percentage … Fluazifop”) is given as 50%. In data set [2], the “T1/2, temperature where 50% of the protein was unfolded, Buffer plus Fe2+ and aKG” value amounted to 61 °C; the “T1/2, temperature where 50% of the protein was unfolded, Buffer” value came out at 61 °C.

B3: MON-HT9: engineered oxygenase protein, amino acid sequence SEQ ID NO:40 (protein)
chain: MHAALTPLTNKYRFIDVQPLTGVLGAEITGVDLREPLDDSTWNEILDAFHTYQVIYFPAQQITNEQHISFSRRFGPVDPVPLLKSIEGYPEVQMIRREANESGRILGDDWHTDSTFLDAPPAAVVMRAIEVPEYGGDTGFLSMYSAWDTLSDTMKATIEGLNVVHSATRVFGSLYQAQNWRFSNTSVKVMDVDAGDRETVHPLVVSHPVTGRRALYCNQVYCQRIEGMTDAESKCLLQFLYEHATKFDFTCRVRWKKDQVLVWDNLCTMHRAVPDYAGKFRYLTRTTVAGDRPAR
In the case of B3, in data set [1] (setting [5]), the “Vmax Quizalofop” value is 0.53 (−0.02) umol herbicide product mg enzyme-1 min-1. For the same molecule, the Michaelis-Menten constant (Km) in data set [1] (setting [6]) turned out to be 100 µM. In data set [1] (setting [7]), the “Km 2,4-D” value is reported as “NDB” and the “Vmax 2,4-D” value was “NDB”. Besides, the “maximum activities for all four substrates compared with the wild-type enzyme” value in data set [4] (haloxyfop, fenoxaprop, fluazifop and dichlorprop) is “lower than, or equal to”. Besides, in data set [4] (wild-type set at 100%), the “maximum activity as a percentage of the wild-type enzyme's activity, Haloxyfop” value was 91%; the “maximum activity as a percentage of the wild-type enzyme's activity, Dichlorprop” value came to 19%; the “maximum activity as a percentage of the wild-type enzyme's activity, Fenoxaprop” value came out at 67%; the “maximum activity as a percentage … Fluazifop” value came out at 41%. Further, in data set [2], the “T1/2, temperature where 50% of the protein was unfolded, Buffer plus Fe2+ and aKG” value stood at 60 °C; the “T1/2, temperature where 50% of the protein was unfolded, Buffer” value is 61 °C.

B4: MON-HT10: engineered oxygenase protein, amino acid sequence SEQ ID NO:43 (protein)
chain: B3 chain with T21C, A59G, Q61A, S69A, R271L, A277D, R292K, A294S
Take B4: the “Vmax Quizalofop” value in data set [1] (setting [5]) is recorded as 0.78 (−0.05) umol herbicide product mg enzyme-1 min-1. Also, the Km in data set [1] (setting [6]) stood at 130 µM. For the same molecule, in data set [1] (setting [7]), the “Km 2,4-D” value is reported as “NDB” and the “Vmax 2,4-D” value is listed as “NDB”. Also, in data set [4] (wild-type set at 100%), the “maximum activity as a percentage of the wild-type enzyme's activity, Dichlorprop” value worked out at 29% and the “maximum activity as a percentage … Fluazifop” value was 48%. Besides, in data set [2], the “T1/2, temperature where 50% of the protein was unfolded, Buffer plus Fe2+ and aKG” value stood at 44 °C; the “T1/2, temperature where 50% of the protein was unfolded, Buffer” value came to 44 °C.

A word on the Km: it is the substrate concentration at which the rate is half of its maximum.
